# Measurements from publication PMC11329664.
# Biological target: Alexa Fluor 488-conjugated human CD40-CA-His12 (ectodomain of human CD40) (human)
# Assay: scanning fluorescence correlation spectroscopy with brightness-transit statistics (sFCS BTS); CD40-AF488-His tethered through Ni-NTA-DGS to a BSA-blocked supported lipid bilayer, titrated to higher surface densities (100 and 175 molecules/µm^2); brightness and transit time compared with the monomeric control AF488-His; 24 °C
substance,measurement,value
Alexa Fluor 488-conjugated human CD40-CA-His12 (ectodomain of human CD40) (domain or fragment),stoichiometry N,> 2
